Patent publication US20240092898A1 (BIVICTRIX, published 2024)

Tests used:
CD7 [1] = target: T1, CD7 (human, UniProt P09564 26-180, limits assumed); experiment: SPR; ratio of KD to WT
T1 construct: also called human CD7
T1 sequence (looked up): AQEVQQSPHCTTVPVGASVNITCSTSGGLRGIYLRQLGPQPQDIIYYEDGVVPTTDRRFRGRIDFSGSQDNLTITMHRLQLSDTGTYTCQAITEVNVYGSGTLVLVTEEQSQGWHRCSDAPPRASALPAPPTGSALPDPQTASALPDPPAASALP

CD7 [2] = target: T1, CD7; experiment: SPR

Fold reduction in binding affinity compared to WT (Kd) (CD7 [1]): 17 fold
Kd (CD7 [2]): 44.5 nM
B1: 7-AA-1 (antibody, V domains shown)
VH: QVQLQESGAELVKPGASVKLSCKASGYTFTSYWMHWVKQRPGQGLEWIGKINPSNGRTNYNEKFKSKATLTVDKSSSTAYMQLSSLTSEDSAVYYCARGGVYYDLYYAALDYWGQGTTVTVSS
VL: DIELTQSPATLSVTPGDSVSLSCRASQSISNNLHWYQQKSHESPRLLIKSASQSISGIPSRFSGSGSGTDFTLSINSVETEDFGMYFCQQSNSWPYTFGGGTKLEIKR
